Substitutions are numbered along the chain they refer to. Names and notes keep the numbering of the source.
B1: V213C + Y422I: ApPPO1 (SEQ ID NO: 1) variant (protein)
chain: MPFTHLKPLNRLLGSPRARHPHVAPQAVSVTNTSTTRPGGRSSAPGIPGDAEYDVVIVGAGISGLTTAQALAKQYSDAVPRLLVTEARDCVGGNIITRRDGGYQWEEGPNSFQPSDAVLRAAVDAGVADRLVLGDPKAPRYVYWGGRLRATPSGPDVLTFDLLSLWGKLRAGLGAAGFKAPLPEREESVKEFVTRNLGEEVFQRLIEPFCSGCYAGDPAKLSMKAAFGKVYDLEKGGGSIVGGVLALMKARKQKPPEPRPADLPPKPKGQTVGSFDKGLVTLPSAIAEELGDRVVTGWKLESIDRSGDRFQLTYDTPQGRKKVSARSVALTVPAYTAASLLESRFPKLGKALSSIYYPPVASVALSYPETAILPERLGSDGHLAGFGQLHPRTQGVTTLGTIYASSLFPGRVPEGKVLLLSIFGGATNTRVATMPHGEIVSQVDKDLRKMLIRSDAESPHTVNVTVWPRAIPQFNVGHTDLIQEAKDDLASQGWQGLHLGGNYVAGVALGKCMEAGYKQAAELASHVKSLAT
modifications: Synthetic (Protoporphyrinogen IX oxidase (ApPPO1) of Auxenochlorella protothecoides)
B2: A170L: MxPPO (SEQ ID NO: 3) variant (protein)
chain: MHHMPRTTGMNVAVVGGGISGLAVAHHLRSRGTDAVLLESSARLGGAVGTHALAGYLVEQGPNSFLDREPATRALAAALNLEGRIRAADPAAKRRYVYTRGRLRSVPASPPAFLASDILPLGARLRVAGELFSRRAPEGVDESLAAFGRRHLGHRATQVLLDAVQTGIYLGDVEQLSVAATFPMLVKMEREHRSLILGAIRAQKAQRQAALPAGTAPKLSGALSTFDGGLQVLIDALAASLGDAAHVGARVEGLAREDGGWRLIIEEHGRRAELSVAQVVLAAPAHATAKLLRPLDDALAALVAGIAYAPIAVVHLGFDAGTLPAPDGFGFLVPAEEQRRMLGAIHASTTFPFRAEGGRVLYSCMVGGARQPGLVEQDEDALAALAREELKALAGVTARPSFTRVFRWPLGIPQYNLGHLERVAAIDAALQRLPGLHLIGNAYKGVGLNDCIRNAAQLADALVAGNTSHAP
modifications: Synthetic (Protoporphyrinogen IX oxidase (MxPPO) of Myxococcus xanthus)
B3: I168C: MxPPO (SEQ ID NO: 3) variant (protein)
chain: B2 chain with I168C, L170A
modifications: Synthetic (Protoporphyrinogen IX oxidase (MxPPO) of Myxococcus xanthus)
B4: V164A: MxPPO (SEQ ID NO: 3) variant (protein)
chain: B2 chain with V164A, L170A
modifications: Synthetic (Protoporphyrinogen IX oxidase (MxPPO) of Myxococcus xanthus)
B5: R95A + M365V: MxPPO (SEQ ID NO: 3) variant (protein)
chain: B2 chain with R95A, L170A, M365V
modifications: Synthetic (Protoporphyrinogen IX oxidase (MxPPO) of Myxococcus xanthus)
B6: L332T: MxPPO (SEQ ID NO: 3) variant (protein)
chain: B2 chain with L170A, L332T
modifications: Synthetic (Protoporphyrinogen IX oxidase (MxPPO) of Myxococcus xanthus)
B7: M365T: MxPPO (SEQ ID NO: 3) variant (protein)
chain: B2 chain with L170A, M365T
modifications: Synthetic (Protoporphyrinogen IX oxidase (MxPPO) of Myxococcus xanthus)
B8: I311M: MxPPO (SEQ ID NO: 3) variant (protein)
chain: B2 chain with L170A, I311M
modifications: Synthetic (Protoporphyrinogen IX oxidase (MxPPO) of Myxococcus xanthus)
B9: A170C: MxPPO (SEQ ID NO: 3) variant (protein)
chain: B2 chain with L170C
modifications: Synthetic (Protoporphyrinogen IX oxidase (MxPPO) of Myxococcus xanthus)
B10: I345T: MxPPO (SEQ ID NO: 3) variant (protein)
chain: B2 chain with L170A, I345T
modifications: Synthetic (Protoporphyrinogen IX oxidase (MxPPO) of Myxococcus xanthus)
B11: M365V: MxPPO (SEQ ID NO: 3) variant (protein)
chain: B2 chain with L170A, M365V
modifications: Synthetic (Protoporphyrinogen IX oxidase (MxPPO) of Myxococcus xanthus)
B12: M365I: MxPPO (SEQ ID NO: 3) variant (protein)
chain: B2 chain with L170A, M365I
modifications: Synthetic (Protoporphyrinogen IX oxidase (MxPPO) of Myxococcus xanthus)
B13: R95A + M365I: MxPPO (SEQ ID NO: 3) variant (protein)
chain: B2 chain with R95A, L170A, M365I
modifications: Synthetic (Protoporphyrinogen IX oxidase (MxPPO) of Myxococcus xanthus)
B14: R95A: MxPPO (SEQ ID NO: 3) variant (protein)
chain: B2 chain with R95A, L170A
modifications: Synthetic (Protoporphyrinogen IX oxidase (MxPPO) of Myxococcus xanthus)
B15: F329V: MxPPO (SEQ ID NO: 3) variant (protein)
chain: B2 chain with L170A, F329V
modifications: Synthetic (Protoporphyrinogen IX oxidase (MxPPO) of Myxococcus xanthus)

Columns and labels:
[1] = tested on: ApPPO1; experiment: Herbicide tolerance test of ApPPO1 wild type and variants in PPO-deficient E. coli BT3(ΔPPO), growth on herbicide-containing LB agar; assay type: cell-based, Auxenochlorella protothecoides; conditions: relative to ApPPO1 WT, dark
Procedure: (§1) Then, the extent of tolerance was evaluated.

[2] = tested on: MxPPO; experiment: Herbicide tolerance test of MxPPO wild type and variants in PPO-deficient E. coli BT3(ΔPPO), growth on herbicide-containing LB agar; assay type: cell-based, Myxococcus xanthus; conditions: relative to MxPPO WT, light; for Herbicide tolerance, flumioxazin: up to 100 μM (FIG. 13); for Herbicide tolerance, saflufenacil: up to 200 μM (FIG. 13)
Procedure: as §1

[3] = tested on: MxPPO; experiment: PPO enzyme activity of purified MBP-fused MxPPO wild type and variants; assay type: biochemical, Myxococcus xanthus; conditions: PPO enzyme activity of purified MxPPO protein, relative to wild type
Procedure: Thus, PPO proteins of wild type and variants were expressed as fused to MBP and were used for experiments.
The following process for purification of PPO protein was performed in a 4° C. cold room. […] The column was washed with 3 column volumes of buffer and the presence of protein in the washing solution was examined. When the protein was no longer detected, the washing procedure was terminated. Then, the MBP-PPO protein was eluted with approximately 2 column volumes of buffer containing 20 mM maltose. The protein concentration of each eluent was determined and the elution was stopped when the protein was no longer detected. Ten microliter of each fraction was investigated for protein quantification and SDS-PAGE analysis. The highly pure fractions of PPO protein variants were used for the enzyme assay.
Since protoporphyrinogen IX, a substrate of PPO protein, was not commercially available, it was chemically synthesized in the laboratory. Overall process was performed in dark under nitrogen stream. […] of protoporphyrin IX was dissolved in 20 ml of 20% (v/v) EtOH, and stirred under dark condition for 30 minutes. The obtained protoporphyrin IX solution was put into a 15 ml screw tube in an amount of 800 μl, and flushed with nitrogen gas for 5 minutes. To this, 1.5 g of sodium amalgam was added and vigorously shaken for 2 minutes. The lid was opened to exhaust hydrogen gas in the tube. Thereafter, the lid was closed and incubated for 3 minutes. The protoporphyrinogen IX solution was filtered using syringe and cellulose membrane filter. To 600 μl of the obtained protoporphyrinogen IX solution, approximately 300 μl of 2M MOPS [3-(N-morpholino) propanesulfonic acid] was added to adjust pH to 8.0. To determine the enzyme activity of PPO protein, a reaction mixture was prepared with the following composition (based on 10 ml): 50 mM Tris-Cl (pH 8.0); 50 mM NaCl; 0.04% (v/v) Tween 20; 40 mM glucose (0.072 g); 5 units glucose oxidase (16.6 mg); and 10 units catalase (1 μl).
Hundred and eighty microliters of a reaction mixture […] were placed in 96 well plates and 20 μl of purified PPO proteins were added. After 50 μl of the mineral oil was layered, the reaction was initiated by adding the substrate, protoporphyrinogen IX solution, to a final concentration of 50 μM. The reaction proceeded at room temperature for 30 min and the fluorescence of protoporphyrin IX was measured using Microplate reader (Sense, Hidex) (excitation: 405 nm; emission: 633 nm). To calculate the PPO enzyme activity, the protoporphyrinogen IX solution was kept open in the air overnight to oxidize the solution. To this, 2.7 N HCl was added, and the absorbance at 408 nm was measured. A standard curve was generated using standard protoporphyrin IX, and PPO activity was measured by calibration of protoporphyrin IX using the standard curve of protoporphyrin IX.
Activities of variants were presented relatively compared to that of wild type.

Molecule	Activity (%) [3] [%]	other results
B1		Herbicide tolerance, flumioxazin ([1]; up to 100 μM (FIGS. 7-12)): +++++ (more than 10,000 fold higher tolerance); Herbicide tolerance, tiafenacil ([1]; up to 200 μM (FIGS. 7-12)): ++++ (1,000-9,999 fold higher tolerance); Herbicide tolerance, sulfentrazone ([1]; up to 400 μM (FIGS. 7-12)): +++ (100-999 fold higher tolerance)
B2	40	Herbicide tolerance, flumioxazin [2]: ++ (10-99 fold higher tolerance); Herbicide tolerance, saflufenacil [2]: ++ (10-99 fold higher tolerance)
B3	47	
B4	75	
B5	40	
B6	87	
B7	52	
B8	87	Herbicide tolerance, flumioxazin [2]: ++ (10-99 fold higher tolerance); Herbicide tolerance, saflufenacil [2]: ++ (10-99 fold higher tolerance)
B9	86	
B10	33	
B11	77	
B12	82	
B13	42	
B14	43	
B15	91	

From patent US20220042033A1, “COMPOSITION AND METHOD FOR CONFERRING AND/OR ENHANCING TOLERANCE AGAINST HERBICIDES BY USING VARIANTS OF PPO” (FarmHannong Co., Ltd., priority 2017, published 2022)
